{"source": "patent CN115043942A", "binders": {"B1": {"name": "抗人ROR1抗体UC961 (带有人IgG1) (antibody, from another filing, V domains shown)", "VH": "QVQLQESGPGLVKPSQTLSLTCTVSGYAFTAYNIHWVRQAPGQGLEWMGSFDPYDGGSSYNQKFKDRLTISKDTSKNQVVLTMTNMDPVDTATYYCARGWYYFDYWGHGTLVTVSS", "VL": "DIVMTQTPLSLPVTPGEPASISCRASKSISKYLAWYQQKPGQAPRLLIYSGSTLQSGIPPRFSGSGYGTDFTLTINNIESEDAAYYFCQQHDESPYTFGEGTKVEIK"}}, "molecular_target": "人ROR1 ECD蛋白 (胞外结构域aa30-406) (human) (UniProt Q01973)", "sequence (Q01973 30-406)": "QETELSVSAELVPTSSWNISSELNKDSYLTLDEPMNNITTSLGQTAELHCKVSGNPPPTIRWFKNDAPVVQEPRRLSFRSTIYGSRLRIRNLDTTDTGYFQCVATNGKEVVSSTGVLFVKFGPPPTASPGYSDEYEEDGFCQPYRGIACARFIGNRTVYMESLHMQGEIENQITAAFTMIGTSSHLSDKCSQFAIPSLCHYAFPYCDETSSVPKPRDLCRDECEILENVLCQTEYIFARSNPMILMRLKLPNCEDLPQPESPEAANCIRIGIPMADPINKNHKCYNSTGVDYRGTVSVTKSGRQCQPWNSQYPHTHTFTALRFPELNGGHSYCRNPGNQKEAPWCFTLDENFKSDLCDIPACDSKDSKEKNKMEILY", "assay": "BLI (Octet ForteBio), antibody on AHC probe, human ROR1 ECD in solution, 1:1 model; mean of two determinations"}
{"binder": "B1", "values": [{"measurement": "Kd", "value": 15.8, "unit": "nM"}, {"measurement": "koff", "value": 0.0137, "unit": "s⁻¹"}, {"measurement": "kon", "value": 981000, "unit": "M⁻¹ s⁻¹"}]}
